Experimental data reported in patent US20190382481A1 (Janssen / Centocor, published 2019).

Key:
Test in all cases: cell-based or functional assay
human CD33 [1] = target: T1, human CD33 (human, UniProt P20138 18-364)
human CD33 [2] = target: T1, human CD33; remark: listed apart in the source
human CD33 [3] = target: T1, human CD33; remark: listed apart in the source
human CD33 [4] = target: T1, human CD33; remark: listed apart in the source
cyno CD33 = cyno CD33 (cynomolgus monkey)
cyno CD33 (cynomolgus monkey), sequence (chain, as listed by the source limits assumed): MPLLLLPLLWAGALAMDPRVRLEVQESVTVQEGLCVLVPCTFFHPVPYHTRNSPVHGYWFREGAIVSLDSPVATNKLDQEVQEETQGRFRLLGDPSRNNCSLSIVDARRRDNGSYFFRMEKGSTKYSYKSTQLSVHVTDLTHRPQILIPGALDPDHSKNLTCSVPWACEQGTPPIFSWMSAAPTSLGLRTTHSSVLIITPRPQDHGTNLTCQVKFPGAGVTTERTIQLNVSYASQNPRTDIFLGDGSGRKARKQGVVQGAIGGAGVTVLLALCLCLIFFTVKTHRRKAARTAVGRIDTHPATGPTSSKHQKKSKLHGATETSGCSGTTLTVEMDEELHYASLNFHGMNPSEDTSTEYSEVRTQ

T1 sequence (P20138 18-364 limits assumed): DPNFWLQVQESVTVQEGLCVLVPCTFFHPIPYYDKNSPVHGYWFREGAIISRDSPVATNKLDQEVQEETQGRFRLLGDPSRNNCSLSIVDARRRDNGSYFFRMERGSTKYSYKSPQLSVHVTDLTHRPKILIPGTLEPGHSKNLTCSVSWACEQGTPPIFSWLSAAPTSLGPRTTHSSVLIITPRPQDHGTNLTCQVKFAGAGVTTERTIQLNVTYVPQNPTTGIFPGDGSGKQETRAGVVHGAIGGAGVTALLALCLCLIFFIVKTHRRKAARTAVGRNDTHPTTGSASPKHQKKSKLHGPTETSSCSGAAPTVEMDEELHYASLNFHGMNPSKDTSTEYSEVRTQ

| Binder | Primary AML Cell Killing EC50 (nM), ex vivo AML patient whole blood (human CD33 [2]) [nM] | Cytotoxicity EC50 (nM), T-cell mediated cytotoxicity of MOLM-13 (human CD33 [3]) [nM] | also measured |
| --- | --- | --- | --- |
| C33B48.CLF (antibody, human IgG1, lambda, IgG1 low fucose Fc glycan) heavy: not shown light: QSALTQPASVSGSPGQSITISCTGTSSDVGDYNYVSWYQQHPGKVPKLMIYDVSNRPSGVSNRFSGSMSGNTASLTISGLQAEDEADYYCSSYSSSSALEVFGGGTKLTVLGQPKAAPSVTLFPPSSEELQANKATLVCLISDFYPGAVTVAWKADSSPVKAGVETTTPSKQSNNKYAASSYLSLTPEQWKSHRSYSCQVTHEGSTVEKTVAPTECS | – | – | EC50 ADCC (nM), MOLM-13 target cells, human NK effector cells (human CD33 [1]): 0.023 nM; EC50 ADCC (nM), MV4-11 target cells, human NK effector cells (human CD33 [1]): 0.113 nM |
| C3CB97 (bispecific antibody, human IgG4 S228P, lambda, F234A L235A) heavy 1: not shown light 1: QSALTQPASVSGSPGQSITISCTGTSSDVGDYNYVSWYQQHPGKVPKLMIYDVSNRPSGVSNRFSGSMSGNTASLTISGLQAEDEADYYCSSYSSSSALEVFGGGTKLTVLGQPKAAPSVTLFPPSSEELQANKATLVCLISDFYPGAVTVAWKADSSPVKAGVETTTPSKQSNNKYAASSYLSLTPEQWKSHRSYSCQVTHEGSTVEKTVAPTECS heavy 2: QVQLQQSGPRLVRPSQTLSLTCAISGDSVFNNNAAWSWIRQSPSRGLEWLGRTYYRSKWLYDYAVSVKSRITVNPDTSRNQFTLQLNSVTPEDTALYYCARGYSSSFDYWGQGTLVTVSSASTKGPSVFPLAPCSRSTSESTAALGCLVKDYFPEPVTVSWNSGALTSGVHTFPAVLQSSGLYSLSSVVTVPSSSLGTKTYTCNVDHKPSNTKVDKRVESKYGPPCPPCPAPEAAGGPSVFLFPPKPKDTLMISRTPEVTCVVVDVSQEDPEVQFNWYVDGVEVHNAKTKPREEQFNSTYRVVSVLTVLHQDWLNGKEYKCKVSNKGLPSSIEKTISKAKGQPREPQVYTLPPSQEEMTKNQVSLTCLVKGFYPSDIAVEWESNGQPENNYKTTPPVLDSDGSFLLYSKLTVDKSRWQEGNVFSCSVMHEALHNHYTQKSLSLSLGK light 2: QSALTQPASVSGSPGQSITISCTGTSSNIGTYKFVSWYQQHPDKAPKVLLYEVSKRPSGVSSRFSGSKSGNTASLTISGLQAEDQADYHCVSYAGSGTLLFGGGTKLTVLGQPKAAPSVTLFPPSSEELQANKATLVCLISDFYPGAVTVAWKADSSPVKAGVETTTPSKQSNNKYAASSYLSLTPEQWKSHRSYSCQVTHEGSTVEKTVAPTECS | ~0.232 | – | – |
| C3CB7 (bispecific antibody, human IgG4 S228P, lambda, F234A L235A) heavy 1: not shown light 1: QSALTQPASVSGSPGQSITISCTGTSSDVGDYNYVSWYQQHPGKVPKLMIYDVSNRPSGVSNRFSGSMSGNTASLTISGLQAEDEADYYCSSYSSSSALEVFGGGTKLTVLGQPKAAPSVTLFPPSSEELQANKATLVCLISDFYPGAVTVAWKADSSPVKAGVETTTPSKQSNNKYAASSYLSLTPEQWKSHRSYSCQVTHEGSTVEKTVAPTECS heavy 2: EVQLVESGGGLVQPGGSLRLSCAASGFTFNTYAMNWVRQAPGKGLEWVARIRSKYNNYATYYAASVKGRFTISRDDSKNSLYLQMNSLKTEDTAVYYCARHGNFGNSYVSWFAYWGQGTLVTVSSASTKGPSVFPLAPCSRSTSESTAALGCLVKDYFPEPVTVSWNSGALTSGVHTFPAVLQSSGLYSLSSVVTVPSSSLGTKTYTCNVDHKPSNTKVDKRVESKYGPPCPPCPAPEAAGGPSVFLFPPKPKDTLMISRTPEVTCVVVDVSQEDPEVQFNWYVDGVEVHNAKTKPREEQFNSTYRVVSVLTVLHQDWLNGKEYKCKVSNKGLPSSIEKTISKAKGQPREPQVYTLPPSQEEMTKNQVSLTCLVKGFYPSDIAVEWESNGQPENNYKTTPPVLDSDGSFLLYSKLTVDKSRWQEGNVFSCSVMHEALHNHYTQKSLSLSLGK light 2: QTVVTQEPSLTVSPGGTVTLTCRSSTGAVTTSNYANWVQQKPGQAPRGLIGGTNKRAPGTPARFSGSLLGGKAALTLSGVQPEDEAEYYCALWYSNLWVFGGGTKLTVLGQPKAAPSVTLFPPSSEELQANKATLVCLISDFYPGAVTVAWKADSSPVKAGVETTTPSKQSNNKYAASSYLSLTPEQWKSHRSYSCQVTHEGSTVEKTVAPTECS | 0.332 | 0.0213 | – |
| C33B912.CLF (antibody, human IgG1, kappa, V domains shown, IgG1 low fucose Fc glycan) VH: EVQLVESGGGLVQPGRSLRLSCAASGFTFDDYAMHWVRQAPGKGLEWVSGIGWSGGSIVYADSVKGRFKISRDNAKNSLYLQMNSLRAEDTALYYCAKDSPYGDFFDYWGQGTLVTVSS VL: not shown | – | – | EC50 ADCC (nM), MOLM-13 target cells, human NK effector cells (human CD33 [1]): 0.292 nM; EC50 ADCC (nM), MV4-11 target cells, human NK effector cells (human CD33 [1]): 2.01 nM |
| C3CB12 (bispecific antibody, human IgG4 S228P, lambda, F234A L235A) heavy 1: not shown light 1: SYELTQPPSVSVSPGQTASITCSGNKLGAKFASWYQQKPGQSPVLVIYQDNKRPSGIPERFSGSNSGNTATLTISGTQAVDEADYYCQAWDSSTVVFGGGTKLTVLGQPKAAPSVTLFPPSSEELQANKATLVCLISDFYPGAVTVAWKADSSPVKAGVETTTPSKQSNNKYAASSYLSLTPEQWKSHRSYSCQVTHEGSTVEKTVAPTECS heavy 2: EVQLVESGGGLVQPGGSLRLSCAASGFTFNTYAMNWVRQAPGKGLEWVARIRSKYNNYATYYAASVKGRFTISRDDSKNSLYLQMNSLKTEDTAVYYCARHGNFGNSYVSWFAYWGQGTLVTVSSASTKGPSVFPLAPCSRSTSESTAALGCLVKDYFPEPVTVSWNSGALTSGVHTFPAVLQSSGLYSLSSVVTVPSSSLGTKTYTCNVDHKPSNTKVDKRVESKYGPPCPPCPAPEAAGGPSVFLFPPKPKDTLMISRTPEVTCVVVDVSQEDPEVQFNWYVDGVEVHNAKTKPREEQFNSTYRVVSVLTVLHQDWLNGKEYKCKVSNKGLPSSIEKTISKAKGQPREPQVYTLPPSQEEMTKNQVSLTCLVKGFYPSDIAVEWESNGQPENNYKTTPPVLDSDGSFLLYSKLTVDKSRWQEGNVFSCSVMHEALHNHYTQKSLSLSLGK light 2: QTVVTQEPSLTVSPGGTVTLTCRSSTGAVTTSNYANWVQQKPGQAPRGLIGGTNKRAPGTPARFSGSLLGGKAALTLSGVQPEDEAEYYCALWYSNLWVFGGGTKLTVLGQPKAAPSVTLFPPSSEELQANKATLVCLISDFYPGAVTVAWKADSSPVKAGVETTTPSKQSNNKYAASSYLSLTPEQWKSHRSYSCQVTHEGSTVEKTVAPTECS | 2.63 | 0.268 | – |
| C3CB88 (bispecific antibody, human IgG4 S228P, kappa, lambda, F234A L235A) heavy 1: not shown light 1: not shown heavy 2: EVQLVESGGGLVQPGGSLRLSCAASGFTFNTYAMNWVRQAPGKGLEWVARIRSKYNNYATYYAASVKGRFTISRDDSKNSLYLQMNSLKTEDTAVYYCARHGNFGNSYVSWFAYWGQGTLVTVSSASTKGPSVFPLAPCSRSTSESTAALGCLVKDYFPEPVTVSWNSGALTSGVHTFPAVLQSSGLYSLSSVVTVPSSSLGTKTYTCNVDHKPSNTKVDKRVESKYGPPCPPCPAPEAAGGPSVFLFPPKPKDTLMISRTPEVTCVVVDVSQEDPEVQFNWYVDGVEVHNAKTKPREEQFNSTYRVVSVLTVLHQDWLNGKEYKCKVSNKGLPSSIEKTISKAKGQPREPQVYTLPPSQEEMTKNQVSLTCLVKGFYPSDIAVEWESNGQPENNYKTTPPVLDSDGSFLLYSKLTVDKSRWQEGNVFSCSVMHEALHNHYTQKSLSLSLGK light 2: QTVVTQEPSLTVSPGGTVTLTCRSSTGAVTTSNYANWVQQKPGQAPRGLIGGTNKRAPGTPARFSGSLLGGKAALTLSGVQPEDEAEYYCALWYSNLWVFGGGTKLTVLGQPKAAPSVTLFPPSSEELQANKATLVCLISDFYPGAVTVAWKADSSPVKAGVETTTPSKQSNNKYAASSYLSLTPEQWKSHRSYSCQVTHEGSTVEKTVAPTECS | 0.672 | 0.11 | CD33^+ CD14^+ Killing EC50 (nM), ex vivo human whole blood (human CD33 [4]): 0.506 nM; MOLM13 Killing EC50 (nM), ex vivo human whole blood (human CD33 [4]): 0.671 nM; CD33^+ CD14^+ Killing EC50 (nM), ex vivo cynomolgus whole blood (cyno CD33): 0.89 nM; T cell activation EC50 (nM), ex vivo cynomolgus whole blood (cyno CD33): 0.02 nM |
| C3CB102 (bispecific antibody, human IgG4 S228P, lambda, F234A L235A) heavy 1: not shown light 1: SYELTQPPSVSVSPGQTASITCSGNKLGAKFASWYQQKPGQSPVLVIYQDNKRPSGIPERFSGSNSGNTATLTISGTQAVDEADYYCQAWDSSTVVFGGGTKLTVLGQPKAAPSVTLFPPSSEELQANKATLVCLISDFYPGAVTVAWKADSSPVKAGVETTTPSKQSNNKYAASSYLSLTPEQWKSHRSYSCQVTHEGSTVEKTVAPTECS heavy 2: QVQLQQSGPRLVRPSQTLSLTCAISGDSVFNNNAAWSWIRQSPSRGLEWLGRTYYRSKWLYDYAVSVKSRITVNPDTSRNQFTLQLNSVTPEDTALYYCARGYSSSFDYWGQGTLVTVSSASTKGPSVFPLAPCSRSTSESTAALGCLVKDYFPEPVTVSWNSGALTSGVHTFPAVLQSSGLYSLSSVVTVPSSSLGTKTYTCNVDHKPSNTKVDKRVESKYGPPCPPCPAPEAAGGPSVFLFPPKPKDTLMISRTPEVTCVVVDVSQEDPEVQFNWYVDGVEVHNAKTKPREEQFNSTYRVVSVLTVLHQDWLNGKEYKCKVSNKGLPSSIEKTISKAKGQPREPQVYTLPPSQEEMTKNQVSLTCLVKGFYPSDIAVEWESNGQPENNYKTTPPVLDSDGSFLLYSKLTVDKSRWQEGNVFSCSVMHEALHNHYTQKSLSLSLGK light 2: QSALTQPASVSGSPGQSITISCTGTSSNIGTYKFVSWYQQHPDKAPKVLLYEVSKRPSGVSSRFSGSKSGNTASLTISGLQAEDQADYHCVSYAGSGTLLFGGGTKLTVLGQPKAAPSVTLFPPSSEELQANKATLVCLISDFYPGAVTVAWKADSSPVKAGVETTTPSKQSNNKYAASSYLSLTPEQWKSHRSYSCQVTHEGSTVEKTVAPTECS | 4.97 | – | – |
| C3CB103 (bispecific antibody, human IgG4 S228P, lambda, F234A L235A) heavy 1: not shown light 1: SYELTQPPSVSVSPGQTASITCSGDKLGDKYACWYQQKPGQSPVLVIYQDGKRPSGIPERFSGSNFGNKATLTISGTQAMDEADYYCQAWDRNTVVFGGGTKLTVLGQPKAAPSVTLFPPSSEELQANKATLVCLISDFYPGAVTVAWKADSSPVKAGVETTTPSKQSNNKYAASSYLSLTPEQWKSHRSYSCQVTHEGSTVEKTVAPTECS heavy 2: QVQLQQSGPRLVRPSQTLSLTCAISGDSVFNNNAAWSWIRQSPSRGLEWLGRTYYRSKWLYDYAVSVKSRITVNPDTSRNQFTLQLNSVTPEDTALYYCARGYSSSFDYWGQGTLVTVSSASTKGPSVFPLAPCSRSTSESTAALGCLVKDYFPEPVTVSWNSGALTSGVHTFPAVLQSSGLYSLSSVVTVPSSSLGTKTYTCNVDHKPSNTKVDKRVESKYGPPCPPCPAPEAAGGPSVFLFPPKPKDTLMISRTPEVTCVVVDVSQEDPEVQFNWYVDGVEVHNAKTKPREEQFNSTYRVVSVLTVLHQDWLNGKEYKCKVSNKGLPSSIEKTISKAKGQPREPQVYTLPPSQEEMTKNQVSLTCLVKGFYPSDIAVEWESNGQPENNYKTTPPVLDSDGSFLLYSKLTVDKSRWQEGNVFSCSVMHEALHNHYTQKSLSLSLGK light 2: QSALTQPASVSGSPGQSITISCTGTSSNIGTYKFVSWYQQHPDKAPKVLLYEVSKRPSGVSSRFSGSKSGNTASLTISGLQAEDQADYHCVSYAGSGTLLFGGGTKLTVLGQPKAAPSVTLFPPSSEELQANKATLVCLISDFYPGAVTVAWKADSSPVKAGVETTTPSKQSNNKYAASSYLSLTPEQWKSHRSYSCQVTHEGSTVEKTVAPTECS | 4.19 | – | – |
